The text below walks through data of patent publication US20220145281A1, “NEW VACCINAL STRATEGY TO PREVENT OR TREAT RHUMATOID ARTHRITIS” (INSERM (Institut National de la Santé et de la Recherche …, priority 2019, published 2022).

For one assay, the target named is T1, HLA-DRB1*01:01 (Homo sapiens, UniProt P01903+P01911, A100R/D57E/F55L/F60I/F76Y/I96L/L162R/M171V/P40L/Q125E/R42F/V115G/Y59C).
T1 construct: Purification of HLA-DRB1 molecules from lymphoblastoid cell lines; Total protein extracts were immunoprecipitated by anti-HLA-DR LB3.1 antibody; endogenous in cells; host or cells: JESTHOM lymphoblastoid cell line, HLA homozygous
The experiment in a line: HLA-DR peptide-binding assay (ELISA). The settings on record: positive binding = OD equal to the OD for the HA peptide.

Another assay has as its target HLA-DRB1*04:04 (Homo sapiens, UniProt P01903+P01911, A100R/A169T/F76Y/I96L/K127E/L162R/M171V/N62H/P40V/Q125Y/R42H/S133A/S149N/S66Y/V209L/W38E). The assay can be described thus: HLA-DR peptide-binding assay (ELISA). The settings on record: positive binding = OD equal to the OD for the HA peptide.
In assay [1] the test system is Mononuclear cells (PBLs) from patients and controls. The assay can be described thus: T cell proliferation assay (BRDU incorporation). It counts as cell-based, human. To be noted: healthy controls, 11, 5 μg/ml peptide, 6 days. Here is the method: T cell proliferation assay. Mononuclear cells from patients were isolated from 20 ml of heparinized blood by centrifugation through Ficoll-Histopaque (Sigma Aldrich, St. Quentin-Fallavier, France). Cells were cultured at a density of 10^6 cells/ml in RPMI 1640 with 10% self-serum in the presence of 1 μg/ml of human PAD4 or human fibrinogen or PHA (phytohemagglutinin) or 5 μg/ml of PAD4 peptide. After 6 days of culture at 37° C., proliferative response to proteins was evaluated using the colorimetric bromodeoxyuridine kit (Roche Diagnostics, Meylan, France). Positive T cell responses were defined by optical densities (OD) higher than twice the ODs for cells cultured without protein or peptide.

A further assay has as its target HLA-DRB1*04:02 (Homo sapiens, UniProt P01903+P01911, A100E/A169T/F76Y/K127E/L162R/M171V/N62H/P40V/Q125Y/Q99D/R42H/S133A/S149N/S66Y/V209L/W38E). The experiment in a line: HLA-DR peptide-binding assay (ELISA). To be noted: positive binding = OD equal to the OD for the HA peptide.
The next assay has as its target HLA-DRB1*07:01 (Homo sapiens, UniProt P01903+P01911, A100R/A102G/A103Q/D57E/D86V/E43K/F76Y/K127E/L162R/M171V/P40G/Q125H/Q99D/R33Q/R42Y/R54Q/S133A/S66F/T210M/V115G/Y107V/Y59L/Y89S). The experiment in a line: HLA-DR peptide-binding assay (ELISA). To be noted: positive binding = OD equal to the OD for the HA peptide.
Another assay has as its target T2, HLA-DRB1*04:01 (Homo sapiens, UniProt P01903+P01911, A100K/A169T/F76Y/I96L/K127E/L162R/M171V/N62H/P40V/Q125Y/R42H/S133A/S149N/S66Y/V115G/V209L/W38E).
T2 construct: Purification of HLA-DRB1 molecules from lymphoblastoid cell lines; Total protein extracts were immunoprecipitated by anti-HLA-DR LB3.1 antibody; endogenous in cells; host or cells: SAVC lymphoblastoid cell line, HLA homozygous
The assay can be described thus: HLA-DR peptide-binding assay (ELISA). To be noted: positive binding = OD equal to the OD for the HA peptide.

The test system of assay [2] is 5 purified HLA-DR molecules. The experiment in a line: HLA-DR peptide-binding assay, panel of alleles and likelihood calculation per genotype. Details: species or system human.
Another assay concerns CD4 T cells. The experiment in a line: Flow cytometry analysis of whole blood samples stimulated with PAD4. It counts as cell-based, human. The settings on record: 10 RA patients and 7 controls. The text has this: One patient with RA (2.4%) and none of the patients with psoriatic arthritis or healthy controls had proliferative response to citrullinated fibrinogen. To confirm that the proliferative response observed in PBLs cultured with PAD4 was due to T cells, we ran flow cytometry analysis in an extra 10 RA patients and 7 controls.

The target in assay [3] is T3, HLA-DR molecule HLA-DRB1*01:01, purified from lymphoblastoid cell line JESTHOM (human).
T3 construct: Immunoprecipitated from detergent cell lysate with anti-HLA-DR LB3.1 and eluted at pH 2
The experiment in a line: ELISA: peptide coated on plate, purified HLA-DR added. The protocol:
(§1) HLA-DR Peptide-binding assay. ELISA plates were coated with 10 μg of PAD4 or fibrinogen peptide/well and blocked in 1% bovine serum albumin (BSA). One microgram of purified HLA-DR molecule was added to plates. After washing, bound HLA-DR was detected by biotinylated anti HLA-DR antibody B8122 (Immunotech, Marseille, France), followed by peroxidase-conjugated avidin. Peroxidase-conjugated anti-mouse IgG and peroxidase-conjugated avidin were supplied by Sigma Aldrich (St. Quentin-Fallavier, France). Optical density was read at 405 nm. The binding of each of the purified HLA-DR alleles was assayed on ELISA plates coated with peptides from PAD4 or Fibrinogen (each in duplicate wells) and, as controls, 2 wells coated with a classical positive binder, influenza hemagglutinin (HA) peptide ([…]). Positive binding was defined as an OD value equal to the OD for the HA peptide.

Assay [4] deals with T4, HLA-DR molecule HLA-DRB1*04:02, purified from lymphoblastoid cell line YAR (human).
T4 construct: Immunoprecipitated from detergent cell lysate with anti-HLA-DR LB3.1 and eluted at pH 2
The description is as above. Here is the method:
as §1

The target of assay [5] is T5, HLA-DR molecule HLA-DRB1*04:04, purified from lymphoblastoid cell line PEYSSON (human).
T5 construct: Immunoprecipitated from detergent cell lysate with anti-HLA-DR LB3.1 and eluted at pH 2
The assay is described as above. The protocol: as §1

For assay [6], the target named is T6, HLA-DR molecule HLA-DRB1*07:01, purified from lymphoblastoid cell line MOU (human).
T6 construct: Immunoprecipitated from detergent cell lysate with anti-HLA-DR LB3.1 and eluted at pH 2
The assay is described as above. The protocol:
as §1

Assay [7] concerns the target T7, HLA-DR molecule HLA-DRB1*04:01, purified from lymphoblastoid cell line SAVC (human).
T7 construct: Immunoprecipitated from detergent cell lysate with anti-HLA-DR LB3.1 and eluted at pH 2
The assay is described as above. Here is the method:
as §1

With “DPGVEVTLTMKAASGSTGDQ (Synthetic peptide p8) [peptide 8, 20-mer peptide from human PAD4]”, the “binding to HLA-DRB1*01:01” value with HLA-DRB1*01:01 is listed as “binds”. In addition, the “binding to HLA-DRB1*04:04” value with HLA-DRB1*04:04 is given as “binds”. In addition, the “subjects with T cell proliferative response to peptide (OD ratio higher than 2)” value was 0/11 and no healthy control in [1]; 0 in assay [1] (listed as Peptide 8). In addition, in the assay with HLA-DRB1*04:02, the “binding to HLA-DRB1*04:02” value is reported as “binds”. Further, in the assay with HLA-DRB1*07:01, the “binding to HLA-DRB1*07:01” value is reported as “binds”. For the same molecule, the “binding to HLA-DRB1*04:01” value with HLA-DRB1*04:01 is reported as “binds”. In assay [2] (HLA-DRB1*01:01, *04:01, *04:02, *04:04, *07:01), the “binding to the five tested HLA-DRB1 alleles” value is recorded as “bound all five tested HLA-DRB1 alleles”.
In the case of “VRVFQATRGKLSSKCSVVLG (Synthetic Peptide 22) [20-mer peptide from human PAD4]”, in assay [1], the “subjects with T cell proliferative response to peptide (OD ratio higher than 2)” value was “none of 11”. The “binding to HLA-DRB1*04:01” value with HLA-DRB1*04:01 is recorded as “bind HLA-DRB1*04:01 only”.

B1: peptidyl arginine deiminase 4 (protein, listed as Homo sapiens)
chain: MAQGTLIRVTPEQPTHAVCVLGTLTQLDICSSAPEDCTSFSINASPGVVVDIAHSPPAKKKSTGSSTWPLDPGVEVTLTMKAASGSTGDQKVQISYYGPKTPPVKALLYLTAVEISLCADITRTGKVKPTRAVKDQRTWTWGPCGQGAILLVNCDRDNLESSAMDCEDDEVLDSEDLQDMSLMTLSTKTPKDFFTNHTLVLHVARSEMDKVRVFQATRGKLSSKCSVVLGPKWPSHYLMVPGGKHNMDFYVEALAFPDTDFPGLITLTISLLDTSNLELPEAVVFQDSVVFRVAPWIMTPNTQPPQEVYACSIFENEDFLKSVTTLAMKAKCKLTICPEEENMDDQWMQDEMEIGYIQAPHKTLPVVFDSPRNRGLKEFPIKRVMGPDFGYVTRGPQTGGISGLDSFGNLEVSPPVTVRGKEYPLGRILFGDSCYPSNDSRQMHQALQDFLSAQQVQAPVKLYSDWLSVGHVDEFLSFVPAPDRKGFRLLLASPRSCYKLFQEQQNEGHGEALLFEGIKKKKQQKIKNILSNKTLREHNSFVERCIDWNRELLKRELGLAESDIIDIPQLFKLKEFSKAEAFFPNMVNMLVLGKHLGIPKPFGPVINGRCCLEEKVCSLLEPLGLQCTFINDFFTYHIRHGEVHCGTNVRRKPFSFKWWNMVP
notes: Human PAD4 protein produced in baculovirus expression system
Turning to B1, in the assay on CD4 T cells, the “expression of CD154 (T cell early activation marker) on CD4 T cells” value was “increased expression of CD154”. Also, the “production of TNF alpha by CD4 T cells” value with CD4 T cells was “increased production of TNF alpha”. In addition, the “Likelihood to bind at least one peptide from” value in assay [2] (genotype DRB1*01:01/01:01) is 0.061; in assay [2] (genotype DRB1*01:01/04:01), 0.165; in assay [2] (genotype DRB1*01:01/04:04), 0.120; in [2] (genotype DRB1*01:01/07) it was 0.076; in assay [2] (genotype DRB1*04:01/04:01), 0.258; in assay [2] (genotype DRB1*04:01/04:04) it was 0.218. Moreover, the “Likelihood to bind at least one peptide from” value in [2] (genotype DRB1*04:01/07) is 0.178; in assay [2] (genotype DRB1*04:02/07) it was 0.090; in assay [2] (genotype DRB1*04:04/04:02), 0.134; in assay [2] (genotype DRB1*04:04/04:04), 0.176; in assay [2] (genotype DRB1*04:04/07), 0.134; in assay [2] (genotype DRB1*07/07), 0.090.

B2: peptide 8 from PAD4 (DPGVEVTLTMKAASGSTGDQ) (peptide)
peptide: DPGVEVTLTMKAASGSTGDQ
notes: Synthetic 20-mer, coated on the ELISA plate (10 ug/well); also called p8; peptide p8
For the molecule B2, the binding result in assay [3], in assay [4], in [5], in [6] and in [7] was “binds” throughout.

B3: peptide 22 from PAD4 (VRVFQATRGKLSSKCSVVLG) (peptide)
peptide: VRVFQATRGKLSSKCSVVLG
notes: Synthetic 20-mer, coated on the ELISA plate (10 ug/well); also called p22; peptide p22
Turning to B3, the binding result in [7] was “binds”.
